This note sets out measurements from article PMC10397247.

Assay [1] has as its target T1, 4H687-bH.
T1 chain: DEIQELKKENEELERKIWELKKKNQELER
Kind of assay: two-hybrid library CCNG1.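 Note: natural log of median RNA to DNA barcode read ratio; higher means stronger binding.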

Assay [2] deals with T2, 4H908-bH.
T2 chain: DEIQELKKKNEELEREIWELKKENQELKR
The assay can be described thus: two-hybrid library CCNG1.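 Note: natural log of median RNA to DNA barcode read ratio; higher means stronger binding.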

The target in assay [3] is T3, 4H967-bH.
T3 chain: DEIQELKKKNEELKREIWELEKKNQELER
The assay can be described thus: two-hybrid library CCNG1.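 Note: natural log of median RNA to DNA barcode read ratio; higher means stronger binding.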

Assay [4] has as its target T4, 4H568-bH.
T4 chain: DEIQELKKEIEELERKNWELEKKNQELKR
Kind of assay: two-hybrid library CCNG1.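 Note: natural log of median RNA to DNA barcode read ratio; higher means stronger binding.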

In assay [5] the target is T5, 4H717-bH.
T5 chain: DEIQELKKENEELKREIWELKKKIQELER
The assay can be described thus: two-hybrid library CCNG1.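 Note: natural log of median RNA to DNA barcode read ratio; higher means stronger binding.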

In assay [6] the target is T6, 4H883-bH.
T6 chain: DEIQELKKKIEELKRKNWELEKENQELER
The assay can be described thus: two-hybrid library CCNG1.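 Note: natural log of median RNA to DNA barcode read ratio; higher means stronger binding.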

The target in assay [7] is T7, 4H3855-bH.
T7 chain: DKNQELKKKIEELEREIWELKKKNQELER
Kind of assay: two-hybrid library CCNG1.

The target of assay [8] is T8, 4H953-bH.
T8 chain: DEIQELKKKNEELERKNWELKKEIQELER
The assay can be described thus: two-hybrid library CCNG1.

In assay [9] the target is T9, 4H3782-bH.
T9 chain: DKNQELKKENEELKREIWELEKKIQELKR
The assay can be described thus: two-hybrid library CCNG1.

In assay [10] the target is T10, 4H3843-bH.
T10 chain: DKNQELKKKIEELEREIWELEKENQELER
The assay can be described thus: two-hybrid library CCNG1.

Assay [11] has as its target T11, 4H454-bH.
T11 chain: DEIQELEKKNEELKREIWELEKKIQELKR
Kind of assay: two-hybrid library CCNG1.

Assay [12] addresses T12, 4H797-bH.
T12 chain: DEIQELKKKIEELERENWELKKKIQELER
The assay can be described thus: two-hybrid library CCNG1.

In assay [13] the target is T13, 4H462-bH.
T13 chain: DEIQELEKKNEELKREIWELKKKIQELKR
Kind of assay: two-hybrid library CCNG1.

Assay [14] concerns the target T14, 4H4001-bH.
T14 chain: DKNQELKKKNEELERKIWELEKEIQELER
Kind of assay: two-hybrid library CCNG1.

In assay [15] the target is T15, 4H754-bH.
T15 chain: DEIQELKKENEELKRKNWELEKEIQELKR
Kind of assay: two-hybrid library CCNG1.

Assay [16] concerns the target T16, 4H72-bH.
T16 chain: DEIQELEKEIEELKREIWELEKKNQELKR
Kind of assay: two-hybrid library CCNG1.

The target in assay [17] is T17, 4H918-bH.
T17 chain: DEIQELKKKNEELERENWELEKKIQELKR
Kind of assay: two-hybrid library CCNG1.

Assay [18] deals with T18, 4H607-bH.
T18 chain: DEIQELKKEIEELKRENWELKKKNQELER
Kind of assay: two-hybrid library CCNG1.

For assay [19], the target named is T19, O9-bH.
T19 chain: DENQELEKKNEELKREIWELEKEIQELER
Kind of assay: two-hybrid library CCNG1.

Assay [20] addresses T20, O8-bH.
T20 chain: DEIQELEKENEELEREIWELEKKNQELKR
Kind of assay: two-hybrid library CCNG1.

The target in assay [21] is T21, 4H3855-bA.
T21 chain: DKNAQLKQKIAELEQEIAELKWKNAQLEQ
Kind of assay: two-hybrid library CCNG1.

For assay [22], the target named is T22, 4H454-bN.
T22 chain: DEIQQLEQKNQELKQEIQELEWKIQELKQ
Kind of assay: two-hybrid library CCNG1.

Assay [23] addresses T23, 4H3782-bN.
T23 chain: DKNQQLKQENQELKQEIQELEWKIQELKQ
Kind of assay: two-hybrid library CCNG1.

The target of assay [24] is T24, 4H797-bN.
T24 chain: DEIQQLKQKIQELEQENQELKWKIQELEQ
Kind of assay: two-hybrid library CCNG1.

Assay [25] has as its target T25, 4H4001-bN.
T25 chain: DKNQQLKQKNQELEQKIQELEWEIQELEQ
Kind of assay: two-hybrid library CCNG1.

In assay [26] the target is T26, 4H687-bN.
T26 chain: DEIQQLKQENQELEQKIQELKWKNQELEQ
The assay can be described thus: two-hybrid library CCNG1.

Assay [27] deals with T27, 4H754-bN.
T27 chain: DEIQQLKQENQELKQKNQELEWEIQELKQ
Kind of assay: two-hybrid library CCNG1.

For assay [28], the target named is T28, 4H462-bN.
T28 chain: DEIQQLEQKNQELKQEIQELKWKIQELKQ
Kind of assay: two-hybrid library CCNG1.

Assay [29] deals with T29, 4H953-bN.
T29 chain: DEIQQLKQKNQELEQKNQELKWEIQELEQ
The assay can be described thus: two-hybrid library CCNG1.

The target of assay [30] is T30, 4H3843-bN.
T30 chain: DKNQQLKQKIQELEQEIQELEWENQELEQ
The assay can be described thus: two-hybrid library CCNG1.

Assay [31] addresses T31, 4H908-bN.
T31 chain: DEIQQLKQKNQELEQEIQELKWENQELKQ
Kind of assay: two-hybrid library CCNG1.

Assay [32] deals with T32, 4H967-bN.
T32 chain: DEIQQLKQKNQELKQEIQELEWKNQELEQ
The assay can be described thus: two-hybrid library CCNG1.

Assay [33] concerns the target T33, 4H717-bN.
T33 chain: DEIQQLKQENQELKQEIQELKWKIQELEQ
Kind of assay: two-hybrid library CCNG1.

In assay [34] the target is T34, 4H918-bN.
T34 chain: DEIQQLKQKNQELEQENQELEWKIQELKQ
Kind of assay: two-hybrid library CCNG1.

Assay [35] concerns the target T35, 4H72-bN.
T35 chain: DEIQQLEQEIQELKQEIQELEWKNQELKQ
Kind of assay: two-hybrid library CCNG1.

For assay [36], the target named is T36, 4H568-bN.
T36 chain: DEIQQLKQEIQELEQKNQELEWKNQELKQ
Kind of assay: two-hybrid library CCNG1.

For assay [37], the target named is T37, 4H3855-bN.
T37 chain: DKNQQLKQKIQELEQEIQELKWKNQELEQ
The assay can be described thus: two-hybrid library CCNG1.

Assay [38] concerns the target T38, 4H883-bN.
T38 chain: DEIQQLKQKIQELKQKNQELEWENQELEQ
Kind of assay: two-hybrid library CCNG1.

The target in assay [39] is T39, 4H607-bN.
T39 chain: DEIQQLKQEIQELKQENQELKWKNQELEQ
The assay can be described thus: two-hybrid library CCNG1.

Assay [40] concerns the target T40, 4H390-AA.
T40 chain: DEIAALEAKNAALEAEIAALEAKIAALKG
Kind of assay: two-hybrid library CCmax. To be noted: mean of both orientations.

The target of assay [41] is T41, 4H510-AA.
T41 chain: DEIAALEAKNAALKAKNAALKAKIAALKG
The assay can be described thus: two-hybrid library CCmax. To be noted: mean of both orientations.

In assay [42] the target is T42, 4H775-AA.
T42 chain: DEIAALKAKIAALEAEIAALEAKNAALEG
The assay can be described thus: two-hybrid library CCmax. Conditions: mean of both orientations.

For assay [43], the target named is T43, 4H816-AA.
T43 chain: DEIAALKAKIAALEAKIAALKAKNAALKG
Kind of assay: two-hybrid library CCmax. To be noted: mean of both orientations.

For assay [44], the target named is T44, 4H3940-AA.
T44 chain: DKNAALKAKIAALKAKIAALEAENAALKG
The assay can be described thus: two-hybrid library CCmax. Conditions: mean of both orientations.

Assay [45] deals with T45, 4H3409-AA.
T45 chain: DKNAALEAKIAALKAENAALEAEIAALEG
Kind of assay: two-hybrid library CCmax. To be noted: mean of both orientations.

The target in assay [46] is T46, 4H3625-AA.
T46 chain: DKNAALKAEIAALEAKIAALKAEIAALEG
The assay can be described thus: two-hybrid library CCmax. Conditions: mean of both orientations.

Assay [47] concerns the target T47, 4H3134-AA.
T47 chain: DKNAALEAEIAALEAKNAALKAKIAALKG
The assay can be described thus: two-hybrid library CCmax.

Assay [48] addresses T48, 4H87-AA.
T48 chain: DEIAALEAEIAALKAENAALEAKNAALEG
The assay can be described thus: two-hybrid library CCmax. Conditions: mean of both orientations.

B1: 4H3782-bH (peptide)
chain: DKNQELKKENEELKREIWELEKKIQELKR
As for B1, the interaction score in [1] was 0.418; in assay [2], -1.78; in assay [3], -0.136; in assay [4], 0.164; in assay [5] it was 0.481; in assay [6], -0.532. Further, the interaction score is 0.0378 in assay [7]; -0.497 in assay [8]; 0.738 in assay [9]; 0.943 in assay [10]; 1.75 in [11]; -0.446 in [12]. The interaction score in assay [13] is 1.71; in assay [14], 0.67; in assay [15], 0.775; in assay [16] it was 1.04; in [17] it was -0.854; in assay [18], 0.717.

B2: O8-bH (peptide)
chain: DEIQELEKENEELEREIWELEKKNQELKR
In the case of B2, the interaction score in assay [19] is 0.486; in assay [20], 0.991.

B3: 4H3843-bH (peptide)
chain: DKNQELKKKIEELEREIWELEKENQELER
B3: the interaction score was -0.585 in assay [1]; -0.0277 in assay [3]; -1.1 in assay [4]; -0.346 in [6]; 1.29 in assay [21]; -0.885 in assay [8]. The interaction score is -0.634 in [10]; -0.437 in assay [12]; -0.193 in assay [13]; -0.099 in assay [14]; -0.557 in assay [16]; -2.64 in assay [17]. The interaction score in [18] was -2.13.

B4: 4H3782-bN (peptide)
chain: DKNQQLKQENQELKQEIQELEWKIQELKQ
As for B4, the interaction score in assay [22] is -0.771; in [23], -1.91; in assay [24] it was 0.0484; in assay [25], 0.0598; in assay [26], 0.28; in assay [27] it was 0.109. Also, the interaction score in assay [28] is 0.194; in assay [29] it was -0.576; in [30] it was 0.479; in [31] it was 0.273; in assay [32], -0.314; in assay [33] it was -0.43. Also, the interaction score is -0.56 in assay [34]; -0.393 in assay [35]; -0.456 in assay [36]; -1.08 in assay [37]; -1.27 in assay [38]; -0.461 in assay [39].

B5: 4H3134-AA (peptide)
chain: DKNAALEAEIAALEAKNAALKAKIAALKG
Take B5: the interaction score in [40] was -0.0241; in [41], -2.21; in assay [42], -0.634; in assay [43], -0.115; in assay [44] it was -1.19; in [45], 1.96. Also, the interaction score was -0.878 in [46], -0.475 in assay [47] and -0.703 in assay [48].
